Sequences and labels used below:
B1: psNb 1-25 (VHH)
VHH: HVQLVESGGGLVQAGGSLRLSCATSGRTFSTYRMSWFRQAPGKEREFVATIIWSVGSTHYADSVKGRFTISRDNAKNMVYLQMNSLKPEDTAVYYCAAQRSDSSSWGYEDDYDYWGQGTQVTVSS
B2: psNb 1-21 (VHH)
VHH: HVQLVESGGGLVQAGGSLRLSCAAPGRTFSTSAMGWFRQAPGKEREFVAAIDWSNTNIHYADTVKGRFTISTDTAKNTVYLQMNNLKPEDTAVYYCAQGGWGLTQPISVDYWGKGTQVTVSS
B3: psNb 2-31 (VHH)
VHH: QVQLVESGGGLVQAGESLRLSCAASKPTFRNFAAGWFRQTPGKDREFVAVIEYDGDSAYYADSVKGRFTISRDNAKNTVYLQMNRLKPGDTAVYICAIGGNHYDPSKYYTADEYDYWGQGTQVTVSS
B4: psNb 2-67 (VHH)
VHH: EVQLVESGGGLVQTGGSLRLSCALSGYTFSIFPTAWFRQAPGKEREFVAGIRWNGSTRDYTEYADFVKGRFTISRDNAKNMVYLQMISLKPEDTALYYCAASDGVIDGTNANAYRYWGQGTQVTVSS
B5: psNb 1-23 (VHH)
VHH: QVQLVESGGGLVQAGGSLRLSCAASGRTDSISDMGWFRQAPGKEREFVAVVGWSGGGTDYAHSVKGRFTISRDNAKNTVYLQMNSLKPEDTAVYYCAVGSLRVGSFSVEYWGQGTQVTVSS
B6: psNb 2-38 (VHH)
VHH: QVQLVESGGGLVQAGGSLRLSCAAAARFSTSAMGWFRQAPGKEREFVAAISWSNTNTHYADTVKGRFTISADTAKETVDLQMNSLKPEDTAVYYCVQGGWGIRQPIIVDYWGKGTQVTVSS
B7: psNb 2-65 (VHH)
VHH: HVQLVESGGGLVQAGGSLRLSCAASGTISTLNAMGWYRQAPGKQRELLASISNLGTTYHADSVAGRFTISRGSAKNTVNLQMNSLKPDDTAVYYCNTRVLEGGTQIRDYWGQGTQVTVSS
B8: psNb 2-34 (VHH)
VHH: HVQLVESGGGLVQAGGSLRLSCAASGRTFSRYAAGWFRQAPGKEREFVAVIEWDGDSAYYADPVKGRFTISRDNAKNTVYLQMNRLKPEDTAVYICAVGGNHYSRSKYYNLDEYDDWGQGTQVTVSS
B9: psNb 2-57 (VHH)
VHH: QVQLVESGGGLVQAGGSLRLSCAVSGRTISTFGMGWFRQAPGKEREFVATITRDEDMLLYADSVKGRFTISRDTAKNMVFLQMNSLKIEDTALYYCAVRRDSSWGYSRQSTEYDYWGQGTQVTVSS
B10: psNb 2-45 (VHH)
VHH: QVQLVESGGGLVQAGGSLRLSCTASGYDFSILAIAWYRQAPGKERELVAAISRVGSTDYADSVKGRFTISRDNTKNTVSLQMDSLKPEDTAVYYCNAGIPMTTVLSGLGFWGQGTQVTVSS
B11: psNb 1-22 (VHH)
VHH: HVQLVESGGGLVQPGGSLRLSCAASGRSFNSYLMGWFRQAPGKEREFVAWISGSPHDIIRYRDSVKDRFTISRDNAKNTVYLQMNSLKPVDTAVYYCAVGSLRVGSFSPDYWGQGTQVTVSS

The target of one assay is T1, SARS-CoV-2 spike HexaPro (S) (SARS-CoV-2, Wuhan-Hu-1, UniProt P0DTC2, stabilised). The assay is described as follows: ELISA. (In general: An ELISA detects its analyte on a solid surface through an enzyme-linked reagent.)
On to B1, for which the binding result is “binds”.

Consider B2, for which the binding result is “binds”. With B3, the binding result was “binds”.

Consider B4, for which the binding result is listed as “binds”.

A further assay concerns the target T1, SARS-CoV-2 spike HexaPro (S). The assay is described as follows: cryo-EM structure.
Take B5: the binding result is listed as “binds”. For the molecule B6, the binding result is on record as “binds”. As for B7, the binding result is given as “binds”. B8: the binding result was “binds”. On to B9, for which the binding result is “binds”. For the molecule B10, the binding result was “binds”. In the case of B11, the binding result is listed as “binds”.

The record behind these values is article doi:10.1101/2021.12.26.474192 (bioRxiv, 2021).
